Drawing on patent US20200101171A1, this text covers Receptor binding affinity (%, SPA method), IGF-1R for one substance.

In this test the target is IGF-1 receptor (UniProt P08069). Description: SPA competition by the method of Experimental Example 1; text: relative to human native IGF-1; curve did not reach saturation at the highest concentration.
Chain of UniProt P08069 (P08069 31-1367 limits assumed): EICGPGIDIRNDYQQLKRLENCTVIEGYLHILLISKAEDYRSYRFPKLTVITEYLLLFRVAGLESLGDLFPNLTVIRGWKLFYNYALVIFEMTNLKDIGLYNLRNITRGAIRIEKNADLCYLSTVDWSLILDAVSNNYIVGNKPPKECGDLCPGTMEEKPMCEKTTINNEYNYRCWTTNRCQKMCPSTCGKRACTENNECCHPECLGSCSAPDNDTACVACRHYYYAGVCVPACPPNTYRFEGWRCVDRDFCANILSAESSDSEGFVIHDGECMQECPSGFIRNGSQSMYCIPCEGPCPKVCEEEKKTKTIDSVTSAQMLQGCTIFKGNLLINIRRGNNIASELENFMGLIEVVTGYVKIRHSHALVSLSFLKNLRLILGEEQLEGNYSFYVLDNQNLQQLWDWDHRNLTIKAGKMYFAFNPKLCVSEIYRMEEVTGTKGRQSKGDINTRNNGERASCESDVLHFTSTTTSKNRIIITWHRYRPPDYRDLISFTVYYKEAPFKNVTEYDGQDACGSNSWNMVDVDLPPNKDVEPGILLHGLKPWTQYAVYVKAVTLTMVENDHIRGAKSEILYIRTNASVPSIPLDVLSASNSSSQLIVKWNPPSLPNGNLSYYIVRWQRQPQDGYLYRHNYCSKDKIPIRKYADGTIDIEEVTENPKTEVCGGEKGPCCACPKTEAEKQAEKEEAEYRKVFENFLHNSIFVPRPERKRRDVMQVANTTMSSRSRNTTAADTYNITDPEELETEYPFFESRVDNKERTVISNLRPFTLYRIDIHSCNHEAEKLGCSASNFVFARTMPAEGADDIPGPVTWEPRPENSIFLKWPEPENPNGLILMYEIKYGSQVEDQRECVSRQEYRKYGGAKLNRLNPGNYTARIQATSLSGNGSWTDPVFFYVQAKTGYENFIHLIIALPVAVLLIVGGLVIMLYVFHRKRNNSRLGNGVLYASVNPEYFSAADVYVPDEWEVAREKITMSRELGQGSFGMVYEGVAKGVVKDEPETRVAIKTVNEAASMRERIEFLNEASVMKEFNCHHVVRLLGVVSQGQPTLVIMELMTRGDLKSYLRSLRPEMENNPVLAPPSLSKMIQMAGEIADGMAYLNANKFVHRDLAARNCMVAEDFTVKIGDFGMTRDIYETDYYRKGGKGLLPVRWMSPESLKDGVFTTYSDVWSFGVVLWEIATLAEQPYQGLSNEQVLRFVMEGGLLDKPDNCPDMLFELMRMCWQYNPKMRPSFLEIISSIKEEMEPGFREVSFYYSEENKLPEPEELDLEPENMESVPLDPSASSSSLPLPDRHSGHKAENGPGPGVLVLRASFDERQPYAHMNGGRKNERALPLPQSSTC

Chain of native insulin-3.4K PEG-immunoglobulin Fc conjugate (chain): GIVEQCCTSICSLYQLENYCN
Chain of native insulin-3.4K PEG-immunoglobulin Fc conjugate (chain): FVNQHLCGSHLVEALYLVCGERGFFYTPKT

Consider “native insulin-3.4K PEG-immunoglobulin Fc conjugate”, for which the Receptor binding affinity (%, SPA method), IGF-1R was < 1%.
